The target of experiment [1] is T1, human GIP receptor (human), P48546.
T1 chain: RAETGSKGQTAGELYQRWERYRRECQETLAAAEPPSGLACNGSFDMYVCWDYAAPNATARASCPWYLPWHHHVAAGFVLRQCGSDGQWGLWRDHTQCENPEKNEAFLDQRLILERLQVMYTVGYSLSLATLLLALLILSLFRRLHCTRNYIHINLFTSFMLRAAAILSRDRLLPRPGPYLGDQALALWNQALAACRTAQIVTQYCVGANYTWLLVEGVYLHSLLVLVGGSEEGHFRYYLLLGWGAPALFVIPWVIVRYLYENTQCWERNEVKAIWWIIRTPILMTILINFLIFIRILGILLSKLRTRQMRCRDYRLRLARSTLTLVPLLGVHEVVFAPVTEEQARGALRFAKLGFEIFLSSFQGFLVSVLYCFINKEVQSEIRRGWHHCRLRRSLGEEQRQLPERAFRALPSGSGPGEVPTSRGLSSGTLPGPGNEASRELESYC
Put plainly: cell-based or functional assay.

For experiment [2], the target named is T2, human GLP-1 receptor (human), P43220.
T2 chain: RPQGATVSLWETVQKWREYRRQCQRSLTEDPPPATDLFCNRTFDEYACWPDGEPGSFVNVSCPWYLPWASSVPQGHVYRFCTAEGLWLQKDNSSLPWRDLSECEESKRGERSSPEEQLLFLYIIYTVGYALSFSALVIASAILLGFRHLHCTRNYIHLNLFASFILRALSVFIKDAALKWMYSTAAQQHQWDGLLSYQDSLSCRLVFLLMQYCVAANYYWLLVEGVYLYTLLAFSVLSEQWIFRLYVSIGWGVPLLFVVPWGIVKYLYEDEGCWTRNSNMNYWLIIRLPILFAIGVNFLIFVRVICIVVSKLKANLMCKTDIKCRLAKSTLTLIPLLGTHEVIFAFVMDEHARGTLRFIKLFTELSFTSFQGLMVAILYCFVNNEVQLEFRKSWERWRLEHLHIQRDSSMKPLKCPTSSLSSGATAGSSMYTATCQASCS
The experiment in a line: cell-based or functional assay.

Experiment [3] addresses human glucagon receptor (human), P47871. The experiment in a line: cell-based or functional assay.
For experiment [4], the target named is T1, human GIP receptor (human), P48546. The experiment in a line: radioligand competition SPA, HEK293 membranes.
Experiment [5] has as its target T2, human GLP-1 receptor (human), P43220. Put plainly: radioligand competition SPA, HEK293 membranes. On the technique in general: Displacement assays read how much labelled ligand stays bound in the presence of the test substance.
Experiment [6] deals with human glucagon receptor (human), P47871. The experiment in a line: radioligand competition SPA, HEK293 membranes.

*1 amine or outer side, *2 acyl side, *3 side chain or, on linkers, in order; H or OH if unused. Where no end group is shown, it is not given here. Side-chain parts run from the residue outwards. [ ]: non-standard residue; d: D form. The star is where a group is joined. C20 diacid = O=C(O)CCCCCCCCCCCCCCCCCCC(=O)*; γGlu = O=C(O)[C@H](CCC(=O)[*:2])N[*:1]; αMeL = CC(C)C[C@](C)(N)C(=O)O; AEEA = NCCOCCOCC(=O)O; Aib = CC(C)(N)C(=O)O

Sequence of human glucagon receptor (human), P47871 (P47871 26-477): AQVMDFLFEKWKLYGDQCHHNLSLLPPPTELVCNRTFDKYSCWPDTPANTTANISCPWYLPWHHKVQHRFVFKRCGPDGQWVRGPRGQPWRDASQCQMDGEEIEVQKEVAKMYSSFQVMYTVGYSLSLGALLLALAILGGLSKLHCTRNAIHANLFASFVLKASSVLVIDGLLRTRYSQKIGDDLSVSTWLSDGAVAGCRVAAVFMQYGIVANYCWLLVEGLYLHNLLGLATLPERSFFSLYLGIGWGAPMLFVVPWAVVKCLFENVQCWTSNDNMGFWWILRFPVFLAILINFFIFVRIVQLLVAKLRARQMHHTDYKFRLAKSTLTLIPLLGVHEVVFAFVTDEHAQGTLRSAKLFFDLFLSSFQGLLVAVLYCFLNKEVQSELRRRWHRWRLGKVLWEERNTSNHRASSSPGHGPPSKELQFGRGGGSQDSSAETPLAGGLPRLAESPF

B1: Example 20 (peptide)
peptide: Y[Aib]QGTFTSDYSILLDKK([AEEA-γGlu-C20 diacid])AQ[Aib]AFIEYLLE[Aib]GPSSGAPPPS-NH2
modifications: N-terminus assumed
SMILES: CC[C@H](C)[C@H](NC(=O)[C@H](Cc1ccccc1)NC(=O)[C@H](C)NC(=O)C(C)(C)NC(=O)[C@H](CCC(N)=O)NC(=O)[C@H](C)NC(=O)[C@H](CCCCNC(=O)COCCOCCNC(=O)CC[C@H](NC(=O)CCCCCCCCCCCCCCCCCCC(=O)O)C(=O)O)NC(=O)[C@H](CCCCN)NC(=O)[C@H](CC(=O)O)NC(=O)[C@H](CC(C)C)NC(=O)[C@H](CC(C)C)NC(=O)[C@@H](NC(=O)[C@H](CO)NC(=O)[C@H](Cc1ccc(O)cc1)NC(=O)[C@H](CC(=O)O)NC(=O)[C@H](CO)NC(=O)[C@@H](NC(=O)[C@H](Cc1ccccc1)NC(=O)[C@@H](NC(=O)CNC(=O)[C@H](CCC(N)=O)NC(=O)C(C)(C)NC(=O)[C@@H](N)Cc1ccc(O)cc1)[C@@H](C)O)[C@@H](C)O)[C@@H](C)CC)C(=O)N[C@@H](CCC(=O)O)C(=O)N[C@@H](Cc1ccc(O)cc1)C(=O)N[C@@H](CC(C)C)C(=O)N[C@@H](CC(C)C)C(=O)N[C@@H](CCC(=O)O)C(=O)NC(C)(C)C(=O)NCC(=O)N1CCC[C@H]1C(=O)N[C@@H](CO)C(=O)N[C@@H](CO)C(=O)NCC(=O)N[C@@H](C)C(=O)N1CCC[C@H]1C(=O)N1CCC[C@H]1C(=O)N1CCC[C@H]1C(=O)N[C@@H](CO)C(N)=O
On to B1, for which the values for the cAMP EC50 (0.1% casein) in experiment [1], in experiment [2] and in experiment [3] were 0.0572 nM, 0.149 nM and 0.0641 nM, respectively. Also, the cAMP EC50 (FBS and BSA present) in experiment [1] turned out to be 3.7 nM; in experiment [2], 20.6 nM; in experiment [3], 3.97 nM. The figures for the inhibition constant Ki in experiment [4], in experiment [5] and in experiment [6] were 0.109 nM, 9.23 nM and 3.76 nM, respectively.

Turning to Y[Aib]QGTFTSDYSI[αMeL]LDKK([AEEA-AEEA-γGlu-C20 diacid])AAQAFIEYLLEGGPSSGAPPPS-NH2 [Example 6], the cAMP EC50 (0.1% casein) stood at 0.274 nM in experiment [1], 0.142 nM in experiment [2] and 0.0282 nM in experiment [3]. Besides, the values for the cAMP EC50 (FBS and BSA present) in experiment [1], in experiment [2] and in experiment [3] were 7.41 nM, 21.2 nM and 1.99 nM, respectively. Besides, the Ki in experiment [4] is 0.249 nM; in experiment [5] it was 36.7 nM; in experiment [6], 0.835 nM.

As for Y[Aib]QGTFTSDYSI[αMeL]LDKK([AEEA-AEEA-γGlu-C20 diacid])AQHAFIEYLLEGGPSSGAPPPS-NH2 [Example 7], the results for the cAMP EC50 (0.1% casein) in experiment [1], in experiment [2] and in experiment [3] were 0.0798 nM, 0.109 nM and 0.18 nM, respectively. Moreover, the results for the cAMP EC50 (FBS and BSA present) in experiment [1], in experiment [2] and in experiment [3] were 4.38 nM, 15.5 nM and 14.2 nM, respectively. Further, the Ki in experiment [4] turned out to be 0.11 nM; in experiment [5], 21.4 nM; in experiment [6], 16.3 nM.

B2: Example 4 (peptide)
peptide: Y[Aib]QGTFTSDYSILLDKK([AEEA-γGlu-C20 diacid])AQ[Aib]AFIEYLLA[Aib]GPSSGAPPPS-NH2
modifications: N-terminus assumed
SMILES: CC[C@H](C)[C@H](NC(=O)[C@H](Cc1ccccc1)NC(=O)[C@H](C)NC(=O)C(C)(C)NC(=O)[C@H](CCC(N)=O)NC(=O)[C@H](C)NC(=O)[C@H](CCCCNC(=O)COCCOCCNC(=O)CC[C@H](NC(=O)CCCCCCCCCCCCCCCCCCC(=O)O)C(=O)O)NC(=O)[C@H](CCCCN)NC(=O)[C@H](CC(=O)O)NC(=O)[C@H](CC(C)C)NC(=O)[C@H](CC(C)C)NC(=O)[C@@H](NC(=O)[C@H](CO)NC(=O)[C@H](Cc1ccc(O)cc1)NC(=O)[C@H](CC(=O)O)NC(=O)[C@H](CO)NC(=O)[C@@H](NC(=O)[C@H](Cc1ccccc1)NC(=O)[C@@H](NC(=O)CNC(=O)[C@H](CCC(N)=O)NC(=O)C(C)(C)NC(=O)[C@@H](N)Cc1ccc(O)cc1)[C@@H](C)O)[C@@H](C)O)[C@@H](C)CC)C(=O)N[C@@H](CCC(=O)O)C(=O)N[C@@H](Cc1ccc(O)cc1)C(=O)N[C@@H](CC(C)C)C(=O)N[C@@H](CC(C)C)C(=O)N[C@@H](C)C(=O)NC(C)(C)C(=O)NCC(=O)N1CCC[C@H]1C(=O)N[C@@H](CO)C(=O)N[C@@H](CO)C(=O)NCC(=O)N[C@@H](C)C(=O)N1CCC[C@H]1C(=O)N1CCC[C@H]1C(=O)N1CCC[C@H]1C(=O)N[C@@H](CO)C(N)=O
Regarding B2, the cAMP EC50 (0.1% casein) in experiment [1] was 0.0648 nM; in experiment [2], 0.18 nM; in experiment [3] it was 0.0674 nM. Moreover, the cAMP EC50 (FBS and BSA present) in experiment [1] is 1.55 nM; in experiment [2], 10.4 nM; in experiment [3] it was 2.49 nM. Besides, the Ki in experiment [4] was 0.0374 nM; in experiment [5], 3.54 nM; in experiment [6] it was 2.55 nM.

B3: Example 5 (peptide)
peptide: Y[Aib]QGTFTSDYSI[αMeL]LDKK([AEEA-AEEA-γGlu-C20 diacid])AAQAFIEYLLE[Aib]GPSSGAPPPS-NH2
modifications: N-terminus assumed
SMILES: CC[C@H](C)[C@H](NC(=O)[C@H](Cc1ccccc1)NC(=O)[C@H](C)NC(=O)[C@H](CCC(N)=O)NC(=O)[C@H](C)NC(=O)[C@H](C)NC(=O)[C@H](CCCCNC(=O)COCCOCCNC(=O)COCCOCCNC(=O)CC[C@H](NC(=O)CCCCCCCCCCCCCCCCCCC(=O)O)C(=O)O)NC(=O)[C@H](CCCCN)NC(=O)[C@H](CC(=O)O)NC(=O)[C@H](CC(C)C)NC(=O)[C@](C)(CC(C)C)NC(=O)[C@@H](NC(=O)[C@H](CO)NC(=O)[C@H](Cc1ccc(O)cc1)NC(=O)[C@H](CC(=O)O)NC(=O)[C@H](CO)NC(=O)[C@@H](NC(=O)[C@H](Cc1ccccc1)NC(=O)[C@@H](NC(=O)CNC(=O)[C@H](CCC(N)=O)NC(=O)C(C)(C)NC(=O)[C@@H](N)Cc1ccc(O)cc1)[C@@H](C)O)[C@@H](C)O)[C@@H](C)CC)C(=O)N[C@@H](CCC(=O)O)C(=O)N[C@@H](Cc1ccc(O)cc1)C(=O)N[C@@H](CC(C)C)C(=O)N[C@@H](CC(C)C)C(=O)N[C@@H](CCC(=O)O)C(=O)NC(C)(C)C(=O)NCC(=O)N1CCC[C@H]1C(=O)N[C@@H](CO)C(=O)N[C@@H](CO)C(=O)NCC(=O)N[C@@H](C)C(=O)N1CCC[C@H]1C(=O)N1CCC[C@H]1C(=O)N1CCC[C@H]1C(=O)N[C@@H](CO)C(N)=O
B3: the cAMP EC50 (0.1% casein) in experiment [1] is 0.0757 nM; in experiment [2] it was 0.147 nM; in experiment [3] it was 0.0226 nM. The cAMP EC50 (FBS and BSA present) in experiment [1] worked out at 4.86 nM; in experiment [2], 22.3 nM; in experiment [3] it was 1.47 nM. Besides, the Ki was 0.179 nM in experiment [4], 36.7 nM in experiment [5] and 0.422 nM in experiment [6].

What is called Ki is a measure of affinity in units of concentration, obtained from inhibition or displacement. A lower Ki goes with higher affinity.

Source of the values: patent US20250313605A1.
